Results as given in the supplement of paper PMC12764529.
± gives the half width of the 95% confidence interval.

Assays:
[1] = folding stability dG unfold from trypsin proteolysis; higher = more stable
How it was run: (§1)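 Designed mini-proteins with no cysteine and under 80 residues were kept only if AlphaFold2 dimer inter-PAE was above 15. In a PA-tagged cDNA display construct, they were digested with trypsin and chymotrypsin and then sequenced. K50 was inferred by Bayesian fitting of counts, and unfolding free energy was derived per protease or combined against a sequence-predicted unfolded-state K50 and a shared folded-state K50.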

[2] = folding stability dG unfold from chymotrypsin proteolysis; higher = more stable
How it was run: as §1

[3] = folding stability dG unfold (combined trypsin and chymotrypsin); higher = more stable
How it was run: as §1

| Sequence | folding stability dG unfold [1] | folding stability dG unfold [2] | folding stability dG unfold [3] |
| --- | --- | --- | --- |
| SAGGSSITVPYPEGYEITVEVFPNYATITTKTPSSTLTKTVSFSTPVTVKTPSDKPVTINVPSPEVSAGGSA [r2_57_JUSTAS] | 0.303 ± 0.034 kcal/mol | 0.533 ± 0.12 kcal/mol | 0.436 ± 0.18 kcal/mol |
| SAGGSSKLTFKDPNSDGTYSVTYDPSTGKANVTTSNGSSATISFEGDTITLLESSSVPPSPSNPTTSSAGGS [r16_687_JUSTAS] | 0.123 ± 0.047 kcal/mol | 0.252 ± 0.093 kcal/mol | 0.243 ± 0.09 kcal/mol |
| SAGGSSLTTPDGVKVEVYENPENNTIYVFEKKPDGTYTLKTLTKEGDKVTEVSTKTIKSNEKEKLLSAGGSA [r2_336_JUSTAS] | 0.966 ± 0.029 kcal/mol | 1.81 ± 0.081 kcal/mol | 1.52 ± 0.069 kcal/mol |
| SAGGSSMINLTITITVKDPSTGKVTTIPLNKKLTPEEIEELVKEIIEKIEKENPDKPIEVLKVEINSAGGSA [r2_59_JUSTAS] | 3.4 ± 0.21 kcal/mol | 2.48 ± 0.12 kcal/mol | 2.81 ± 0.25 kcal/mol |
| SAGGSSMPLEVTEVKKIGDKIVITLRVPPSVGPLSLGLTIELKSKPVTITSTFDPSTTTATIEVGLSAGGSA [r2_261_JUSTAS] | 2.88 ± 0.1 kcal/mol | 3.43 ± 0.18 kcal/mol | 3.25 ± 0.17 kcal/mol |
| SAGGSSMQTTVFILPGPEVPVEEVKAKIAKELGLDFETVTFIPAPSREEAEALAAALGVDGIIVEVDSAGGS [r8_245_JUSTAS] | 2.43 ± 0.053 kcal/mol | 2.662 ± 0.013 kcal/mol | 2.58 ± 0.052 kcal/mol |
| SAGGSSMVDIKPGLVTEIRVETLPNGERVYVVEIPLENGERAVVKISEKFKSEEEKLKAIYEAVSKSAGGSA [r2_347_JUSTAS] | 1.71 ± 0.05 kcal/mol | 2.47 ± 0.039 kcal/mol | 2.24 ± 0.12 kcal/mol |
| SAGGSSPASVRTSQTTVTDPATGRTRSVTVTTLPDGTTVSTFDSPGGSLVTTTTTPDGTTTTVTADSAGGSA [r2_109_JUSTAS] | -0.0855 ± 0.13 kcal/mol | 1.38 ± 0.022 kcal/mol | 1.05 ± 0.066 kcal/mol |
| SAGGSSPEELAEKAINEAMEKFGFKEISEIKIQKEDDGVRITIRMPNNGYTIEIDYEDGKITEIQPWSAGGS [r16_171_TrROS] | 1.53 ± 0.051 kcal/mol | 0.23 ± 0.2 kcal/mol | 1.1 ± 0.083 kcal/mol |
| SAGGSSPLLLTSSPTPLTLPDGGTVTLTTTRVPGDNADVVTITTTPPGTGTTTVTTLPASTAAATLSAGGSA [r2_366_JUSTAS] | 1.47 ± 0.034 kcal/mol | 0.603 ± 0.12 kcal/mol | 1.15 ± 0.068 kcal/mol |
| SAGGSSPLLSPVTLTREVPASEPMAPEEVEAFAAAVAAEVAAAGMTVDFSVERHPDREVLTVTVTVASSAGG [r13_442_JUSTAS] | -0.372 ± 0.1 kcal/mol | 0.678 ± 0.046 kcal/mol | 0.373 ± 0.056 kcal/mol |
| SAGGSSPWLERALEEARELMKNDPPGKEVEAKVKVPYPTPDGQQQPMKFRIRMTYKNNKIKEIEITSAGGSA [r2_173_TrROS] | 0.91 ± 0.11 kcal/mol | 0.518 ± 0.25 kcal/mol | 0.823 ± 0.17 kcal/mol |
| SAGGSSSLSGLKNVTEEPRLAPDSDEEEVLITYENGYLERREPGVLEFYDPENGKVLSKKNVPYHHSAGGSA [r2_374_JUSTAS] | -0.806 ± 0.35 kcal/mol | -0.0765 ± 0.3 kcal/mol | -0.326 ± 0.3 kcal/mol |
| SAGGSSSSMVVVTLTFPPDVSPEEVIEKIAATPGVGAQPISYDPATGTFTIRVGSTDPKAVEEVLGSAGGSA [r2_305_JUSTAS] | 0.878 ± 0.022 kcal/mol | 0.562 ± 0.17 kcal/mol | 0.748 ± 0.074 kcal/mol |
| SAGGSSVLINHTKTFSSEEEAEKEAEELKEKAKKEGFDEVKVEISKDPSGGTYTLKVTIKKKLPPDLKSAGG [r19_92_JUSTAS] | 1.96 ± 0.078 kcal/mol | 3.21 ± 0.072 kcal/mol | 2.87 ± 0.26 kcal/mol |
